Experimental findings from the DeepSol protein solubility set are described below.

The nature of the data set: soluble on expression in E. coli; label from the status in PepcDB or PDB records.
Consider “MRHISIFGTSSDAGKSTLTFVIAKILQRAGIRVAPFKAQNVSNNARVCDDGSEIAIAQSFQAEVLAIPTSYHLNPILLKSGINGQASVIVEGQVISQQDVLEYYRDLDTLKPAVQRCFETLAKMYDCIVAEGAGSPVELNLMDKDLSNIFIAKHYQTKIILVADIEKGGVFASVWGTYNLLPADLRSNVIGVIINKFRGDLSLFDEGIRIIEQAFKIPVLGVLPYMPFNLGFEDNASLQNFVQQPRQKKLKIGVIAYPYMSNYNDFEPLIADDEVLLEFINSPISLEHFDGVILPGSKLVIEDLHWLKTNGLFEQLQQRRKPIFAICGGYEMLFEQLHDPERIENLEPTTATGLGLIDDEIYFAKNKILNKAEYPIFGLNIAGFEMHHGISQKYPLYFQKDNIQGTFIHQVFDHNAFRTQYLRAICAQYQGFDFQLYKTEQINNFIEACRKRLNVKLILEAIQDQ”, for which the “soluble on expression in E. coli” value is on record as “not soluble”.

As for “MAEHPIQGLMETAMESIKEMVDVNTIVGDAVQAPDGTVIIPISKVTFGFAAGGGEFASCCSVDEKGEDSSDDSSKPEIKFPFAGGSGAGVSINPVAFMVVGQGQIKLLPVNINSSLEKILDLIPEIIEKTKDSVKKNLKVKKEIKPGNGESCAKSSKEDENELEHHHHHH”, the “soluble on expression in E. coli” value is listed as “soluble”.

With “MVVLKVTLLEGRPPEKKRELVRRLTEMASRLLGEPYEEVRVILYEVRRDQWAAGGVLFSDKEGT”, the “soluble on expression in E. coli” value is “soluble”.

Regarding “SNAMSQEAFENKLYANLEAVIDPELGVDIVNLGLVYDVTADENNNAVITMTMTSIGCPMAGQIVSDVKKVLSTNVPEVNEIEVNVVWNPPWSKERMSRMAKIALGIRD”, the “soluble on expression in E. coli” value is “soluble”.

For “MSSGSRPSSGGGGGGGGASGGAGGGAPGGGGGGIRGFFSKLRKPSDQPNGNQVQVGTRTFEAHELQKLIPQLEEAISRKDAQLRQQQTIVEGHIKRISELEGEVTTLQRECDKLRSVLEQKAQSAASPGGQPPSPSPRTDQLGNDLQQKAVLPADGVQRAKKIAVSAEPTNFENKPATLQHYNKTVGAKQMIRDAVQKNDFLKQLAKEQIIELVNCMYEMRARAGQWVIQEGEPGDRLFVVAEGELQVSREGALLGKMRAGTVMGELAILYNCTRTASVQALTDVQLWVLDRSVFQMITQRLGMERHSQLMNFLTKVSIFQNLSEDRISKMADVMDQDYYDGGHYIIRQGEKGDAFFVINSGQVKVTQQIEGETEPREIRVLNQGDFFGERALLGEEVRTANIIAQAPGVEVLTLDRESFGKLIGDLESLKKDYGDKERLAQVVREPPSPVKIVDDFREEFAQVTLKNVKRLATLGVGGFGRVELVCVNGDKAKTFALKALKKKHIVDTRQQEHIFAERNIMMETSTDWIVKLYKTFRDQKFVYMLLEVCLGGELWTTLRDRGHFDDYTARFYVACVLEGLEYLHRKNIVYRDLKPENCLLANTGYLKLVDFGFAKKLASGRKTWTFCGTPEYVSPEIILNKGHDQAADYWALGIYICELMLGRPPFQASDPMKTYTLILKGVDALEIPNRRIGKTATALVKKLCRDNPGERLGSGSGGVNDIRKHRWFMGFDWEGLRSRTLKPPILPKVSNPADVTNFDNYPPDNDVPPDEFSGWDEGF”, the “soluble on expression in E. coli” value is “not soluble”.

On to “MTIEKPKISVAFIALGNFCRSPMAEAIFKHEVEKANLENRFNKIDSFGTSNYHVGESPDHRTVSICKQHGVKINHKGKQIKTKHFDEYDYIIGMDESNINNLKKIQPEGSKAKVCLFGDWNTNDGTVQTIIEDPWYGDIQDFEYNFKQITYFSKQFLKKEL”, for which the “soluble on expression in E. coli” value is listed as “soluble”.

On to “MHSLQNVIPQQQAHIAELQVYNNKLERDLQNKIGSLTSSIEWYLRSMELDPEIKADIEQQINSIDAINPLHAFDDLESVIRNLISDYDKLFLMFKGLIQRSNYQYSFGSE”, for which the “soluble on expression in E. coli” value is “soluble”.

“IRSFATHAQLPISIVNREDDAFLNPNFRFIDHSIIGKNVPVADQSFRVGCSCASDEECMYSTCQCLDEMAPDSDEEADPYTRKKRFAYYSQGAKKGLLRDRVLQSQEPIYECHQGCACSKDCPNRVVERGRTVPLQIFRTKDRGWGVKCPVNIKRGQFVDRYLGEIITSEEADRRRAESTIARRKDVYLFALDKFSDPDSLDPLLAGQPLEVDGEYMSGPTRFINHSCDPNMAIFARVGDHADKHIHDLALFAIKDIPKGTELTFDYVNGLTGLESDAHDPSKISEMTKCLCGTAKCRGYLW”: the “soluble on expression in E. coli” value was “soluble”.

Take “MGSDKIHHHHHHMKVLELKNVSVRYKTGEKTVNAVENVSFHLEKGETLGLVGESGCGKSTLGFSIMRLLPKGTKIDGSIKIEGIDISSLSDEEMRQIRGSKVAMIFQDPMTSLNPILRIEDHFVEMILTHRPELSKEDARELAAKALEDVGINRNRLKDYPFQFSGGMRQRVMIALSIVLNPAVLIADEPTTSLDVIVQAQIMELLEKLTKEHRTAMILITHDMGLVAEAADRIGVMYAGHLVELASKERIFTNPLHPYTVGLLRSIPNTDVNDKELRYIPGSPPDLSNPPEGCRFAPRCEKAMKICWEKEPPEFEIDGTRVKCWLYGGDQNGTD”: the “soluble on expression in E. coli” value was “not soluble”.

“LVSGVICAAIGAVALLGTQAVLKSTNSTEFCVSCHSMTHPQAEWEGSVHFSNRKGIRAECADCHVPQDSWHYVKAKVAAVKDVWHTFVTNKIPDQEAYEKHRLEMAQHVWQDMKETDSATCRSCHSFDAMVLAEQREAAQKMHKIAQETNQTCIDCHKGIAHFMPEMPADNSAALGELAKHGGKFNSADKVLYSLAMTSAKLAQGSEIRLLPFAELHNWQEEGDKIVAVVKGWQQVGAEGVIYSGLGQRIMVGLVDDAAKDKLTVHQVVNDKVTNSDWKEVSTSVSLPKAALTADIKSLNDFGSNLNQTHCSGCHAPISANHYTA”: the “soluble on expression in E. coli” value is on record as “not soluble”.

For “MGSDKIHHHHHHMTEQITEIDTLVVGAGQAGVAMSEHLTRLDIPHLVLEKQGIAQAWRSGRWDSLVANGPAWHDRFPGMVFPDCPPDSFVGKEQVADYFAAYARSFNAPIRTGVEVYSAERLAGRPGFRIDTSQGVIEAQRIVAATGPFQRPVIPAIAPQSPAIQQLHSAHYFNPQQLPEGGVLVIGAGSSGVQIADELQRAGRAVWLSVGAHDRPPRRYRQRDFCWWLGVLGMWDAAANAPGKEHVTIAVSGARGGHTVDFRQLAHQGVTLVGQTRGFDGDKALFHPDLAENIRRGDASYLALLDAADAWVARNGMDLPEEPSAREFLPDPACVTDPLLSLNLAEAGIGTIIWATGYTTDYRWLKVNAFDDAQRPQHHRGVSTEPGVYFLGLPWLSRRGSTFIWGVWHDAKYIADQIAIQRQYQRYQPSC”, the “soluble on expression in E. coli” value is recorded as “not soluble”.

Turning to “MEKLLSELAELGARQKFNGEIDFGAEIASDSLLEVMKIVGSEELSQQVLEGFLEQAPTIHQVLLGMTFASYLQSTTSGEASPGAQELSEPLKKARRSIRLLLNLTQRSPDFASRISSESVELLETLLATGSFDVECLIILLKTSQATWLEFQKSPRYSALLQRVLSKYSPDFSENSTILAYFSVLFEMDYGFLSMCYAEMDAPTFCEILDVLRVILTRKTLKIHSNNLLFVLNLLELVVVDYEAFWRARERKEPQSVEQRRVATVEILNLEVEIVGEMCSNTEMTSYLNEKATAMNSVVDVLDAVSIFRNKISIFLDFFQILHAEALFADFRAEQPSDWPKIESEHPRFEVLKRKIEEERRYEETQRRYPDRPRQPLPPKIQRVESSESLSLLANTIFSKYRSIDDVIGVPRVGELKLNCLKAIANLANLSDSNKLATLQNGRQGLISVLQCTTRRPEYFLESFTMRNQSIFCVRQLTDGCQENKEVVFNLQQPNQPIIDRKRLLEELGVHVDN”, the “soluble on expression in E. coli” value is given as “not soluble”.

Regarding “MKAPSYHVVRGDIATATEGVIINAANSKGQPGGGVCGALYKKFPESFDLQPIEVGKARLVKGAAKHIIHAVGPNFNKVSEVEGDKQLAEAYESIAKIVNDNNYKSVAIPLLSTGIFSGNKDRLTQSLNHLLTALDTTDADVAIYCRDKKWEMTLKEAVARREHHHHHH”, the “soluble on expression in E. coli” value is recorded as “soluble”.

In the case of “MQDLLTLRFLDTYDNILFIGNSGVGKTHLAVSIGLECIDRGLSCLFITSTELVNRLIRAHKRGTSETMLKKYSGYSVLIIDEVGYLPFSKEGSNLLFQLINMRYERKSTIVTTNIPLSQWSEIFGNKKLTNALLDRLVHHSKLIQITGPSYRMKSYSENKEVKSLEHHHHHH”, the “soluble on expression in E. coli” value was “soluble”.

“MSLSVSLVYRKARPDDWKGILELYNSLSDDDLYLRFFTFHKLTEEEARKIADTKEHYTVIAEINGKIVGEASIYFDGEFAVVVHPDYRRLGIGTELVKRLIEFAKKNGIKKVRFYTLPENYPMIKIGKKLGFKIIEREDEVYAYLDLTNENVILEKT”: the “soluble on expression in E. coli” value is given as “soluble”.

On to “MTSRGDSREKILHTASRLSQLQGYHATGLNQIVKESGAPKGSLYHFFPNGKEELAIEAVTYTGKIVEHLIQQSMDESSDPVEAIQLFIKKTASQFDNTESIKGIPVGLLASETALISEPLRTVCMKVFKSWEAVFARKLMENGFAEEEANQLGTLINSMIEGGIMLSLTNKDKTPLLLIAEQIPVLVRKKG”, for which the “soluble on expression in E. coli” value is reported as “soluble”.

Take “SMKDHTEGLSDKEQRFVDKLYTGLIQGQRACLAEAITLVESTHSRKKELAQVLLQKVLLYHREQEQSNKGKPLAFRVGLSGPPGAGKSTFIEYFGKMLTERGHKLSVLAVDPSSCTSGGSLLGDKTRMTELSRDMNAYIRPSPTRGTLGGVTRTTNEAILLCEGAGYDIILIETVGVGQSEFAVADMVDMFVLLLPPAGGDELQGIKRGIIEMADLVAVTKSDGDLIVPARRIQAEYVSALKLLRKRSQVWKPKVIRISARSGEGISEMWDKMKDFQDLMLASGELTAKRRKQQKVWMWNLIQESVLEHFRTHPTVREQIPLLEQKVLIGALSPGLAADFLLKAFKSRD”: the “soluble on expression in E. coli” value is “soluble”.

Turning to “MRKLWPLALLLAACGAQDVGAGLDPLRLTATSLPPAYLGEPYSASLAAEGGVRPYSFTLDGKLPEGLSFQGGRLFGVPKEKGSFPLLLTVEDAAKNSRAQRLTLTVSDPPPPRLALVLPPAQVEGPFLLLARVEGREAVGFQMEVRLADLEPDLAGLKALSPAHLLDYDPATRLLRLDMAFAKPVKDREAFRFLLTPQKPLVPRLSPKVVFYDKEGKPLGQPLPRGKPFAELLRLAQAWGREGKALKEDLDGDGKVGEADLRLLAQGYFPKPETPSPEVPGGGEGQASGEEQAP”, the “soluble on expression in E. coli” value is on record as “soluble”.

“MLSSSGHAIRRGITTSAALSNKHAFIVGAARTPIGSFRSSLSSVTAPELASVAIKAALERGAVKPSSIQEVFLGQVCQANAGQAPARQAALGAGLDLSVAVTTVNKVCSSGLKAIILAAQQIQTGHQDFAIGGGMESMSQVPFYVQRGEIPYGGFQVIDGIVKDGLTDAYDKVHMGNCGEKTSKEMGITRKDQDEYAINSYKKSAKAWENGNIGPEVVPVNVKSKKGVTIVDKDEEFTKVNFDKFTSLRTVFQKDGTITAANASTLNDGAAAVIVASQEAVSEQSLKPLARILAYGDAATHPLDFAVAPTLMFPKILERAGVKQSDVAQWEVNEAFSCVPLAFIKKLGVDPSLVNPHGGAVSIGHPIGMSGARLITHLVHTLKSGQIGVAAICNGGGGSSGMVIQKL”: the “soluble on expression in E. coli” value is given as “not soluble”.

For the sequence “MPERDALLTDLVGDRAAEWDTSGELPRDLLVRLGADGLLCAEVAAEHGGLGLGSRENGEFTAHVGSLCSSLRSVMTSQGMAAWTVQRLGDAGQRATFLKELTSGKLAAVGFSERQAGSDLSAMRTRVRLDGDTAVVDGHKVWTTAAAYADHLVVFGLQEDGSGAVVVVPADTPGVRVERVPKPSGCRAAGHADLHLDQVRVPAGAVLAGSGASLPMLVAASLAYGRKSVAWGCVGILRACRTAAVAHARTREQFGRPLGDHQLVAGHIADLWTAEQIAARVCEYASDHWDEGSPEMVPATILAKHVAAERAAAGAATAAQVLASAGAREGHVVERAYRDAKLMEIIEGSSEMCRVMLAQHALALPA”, the “soluble on expression in E. coli” value is “soluble”.

Turning to “MGIPILKLGECLLISIQSELDDHTAVEFQEDLLAKIHETSARGVVIDITSIDFIDSFIAKILGDVVSMSKLMGAKVVVTGIQPAVAITLIELGITFSGVLSAMDLESGLEKLKQELGE”, the “soluble on expression in E. coli” value was “not soluble”.
